From the supplement of paper PMC9170038

system: MS2 coat protein; experiment: apparent KD of MS2 coat protein; higher = weaker reporter binding; conditions: Eterna round: R107; input ligand: arginine 13.2 mM
In short: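 Illumina sequencing clusters served as templates for on-chip transcription of the designed RNA switches. SNAP-549-labelled MS2 coat protein was then titrated in twofold steps from 0.7 or 1.5 nM to 3 µM, allowing 0.8–1.5 h per step at first and 10–20 min per step later. The buffer held 100 mM Tris-HCl pH 7.5, 80 mM KCl and 4 mM MgCl2, without or with constant ligand. Apparent KD is the median per design of normalised cluster binding-curve fits.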

Sequence	apparent KD of MS2 coat protein [nM]
CGCUACAUGAGGAUCACCCAUGUUACUCCGCGAGGACCGGUACGGCCGCCACUCGGCAGUUUGCGCCGCCGGAGGCACUCUUCAG [theeternabot_sameState_MS2_Trp_A_32]	20.9
GGUUGAUGGUCGGCCGCCACUGUUGGUGCCAUGAGUUAAGUAUAGCACAUGAGGAUCACCCAUGUCAGGACCGGGACUCUACCCG [theeternabot_exclusion_MS2_Trp_B_16]	15.1
UUCAGCUAGUCGGCCGCCACUACAUGAGCAUCAGCCAUGUUCCUAAAACACUGCUUCGGCAGUGGUAGGACCGGGACUAGCUGAG	10.4
ACAUCCAGAUUAAUCGUGGGCAUACUCGAUACCAGUAUUUUAACCUACCCUUGGCAGCGACAUGAGGAUCACCCAUGUGAGAUGA [XTheo A #10]	21.4
CGAAUAUAGACGGCCGCCACUCUACAAACAUGAGGAUCACCCAUGUUCACAUAGUGGAAACACAUGAGGACCGGGUCAUAGGCUU [#19 Same State - Tryptophan B]	23.2
CAUAUAUAUUGAAGGAGCGACAUGAGGAUCACCCAUGUCUACCACGUCGAAAGACGCUCAUGUCAGGUAGGUCGCAAUAUAUAUG [Astros-Eli-mod5]	41.5
GGCACAUAGUCGGCCGCCACUAGAUUUUAGUGGAAUAACAUGAGGAUCACCCAUGUAUUUGGGACUAGGACCGGGACUAUGUGCC [Hyena]	34.5
GUCCACAUGAGGAUCACCCAUGUAAGUGGGCGAGGACCGGUACGGCCGCCACUCGACAUGUUGACGAAAAGUCAGCAUGAGGACA [#SwitchBubble 3 #GuTurnoff #Tail]	44.1
UGUAUGGACUGAAGGAGCGCCUCAAAAUAACUUGAGGAUCACCCAGGUAAGGCGAAAGCCGGGCAGGUAGGUCGCAGUCCAUACU [ArgBX 3]	31.2
AUCAGUAGAACUGAUACCAGUCAAAGGCUUUGACCUCAUAACAUGAGGAUCACCCAUGUUGACCCUUGGCAGCAGUAGGCAAGGG [Theo B Ex t4]	22.5
UAUACAUGGUAUAAAUAUAUAUAUAAGAAACGAGGACCGGUACGGCCGCCACUCGUGCCGGAAACAUGAGGAUCACCCAUGUAUU [AK1 Exclusion TrypA mod IceBolt]	21
AAAACAUGAGGAUCACCACAUGACAUGAGGCGAGGACCGGUACGGCCGCCACUCGACAUACAUGAGGAUCACCCAUGUUUGUUGU [Exclusion Tryptophan A 4]	40.7
CAUAAUUUAUCCUAUAAAACUAUUAGUGAUACCAGCACCUCAUGAUGCCCUUGGCAGCACUUACAUGAGGAUCACCCAUGUUUUA [JR_NU_SSTheophyA_Sub029]	99.6
AAUAACAUGAGGAUCACCCAUGUAAAAGAUACCAGAGUGAUGAUCCUCCCUUGGCAGCUUAAACGCUAUUGAUUACAAUAGCGAA [Mat - Same State Theophlline A - Mod of Eli - D2]	29.8
UUAUUUAACGGAAGGAGCGCGGAAAUUAAAGUGGGUAAACAUGAGGAUCACCCAUGUAAACCGCAGGUAGGUCGCCGAUAUUUAU [#22 Exclusion - Arginine B]	43
ACACAUGAUAGAAGGAGCGCAAUGAACACACAUGAGGAUCACCCAUGUUUUUUUUGUGUUUUGCAGGUAGGUCGCUAACAUGAGG [Same State Arginine B 4]	11
UGAUACACGGGAAGGAGCGACAGGGAUAAGUCCGCACGGGCCGCACAUGAGGAUCACCCAUGUCAGGUAGGUCGCCCGUGGCGUG [Erxemarima]	13
AUGGAGACCUCGGCCGCCACUCUCCAUGAGGAUCUCCCAUGUAACAUGAGGAUCACCCAUGUACUGAGGACCGGGAGGUCCUUGA [Same State Tryptophan B GF 17]	7.9

Sequence	apparent KD of MS2 coat protein [nM]
AGCAACAAGUCGGCCGCCACUCAAUAAACAUGAGGAUCACCCAUGUAAAUAACAUGAUAAUAAUAGAGGACCGGGACAGUUGCAU [JR_SSTryptoB_Sub015]	13
AAUAUAAGUGUAAUUAUAUGUAUCUCUGAUACCAGACUCUCAUGUGUCCCUUGGCAGCAGUUACAUGAGGAUCACCCAUGUAUUA [JR_Nu_SSTheophyA_Sub024]	34.3
UUGGUACAUGAGGAUCACCCAUGUACUGAAGGAGCGGGACGAAUCUCAGGUAGGUCGCAGACAUGAGGAUCACCCAUGUAUUGGU [Exclusion Arginine A GF 16]	18.9
UCGUGUAUAUCGGAUACCAGUGAAAUCGAUACAUGAGGAUCACCCAUGUGAGUUGAUGUACACCCUUGGCAGCUGUAUAUAUCUA [snbullin]	15
UUAUUUAUAAUGGAUACCAGUCGUAUGGCCCGGAAUCCUGACAUGAGGAUCACCCAUGUCGACCCUUGGCAGCUGUUAUGGGUUU [XTheo B #22]	13.7
AACAUGAGGAUCACCCAUGUCGGGCCGGAGCGAGGACCGGUACGGCCGCCACUCGAGACAUGAGGAUCACCCAUGUAGGGCGAAA [Exclusion Tryptophan A GF21]	61.5
AGAUUCGACACGGCCGCCACUUUCAGUGGCUGGUGUCAUGGUGCACAUGAGGAUCACCCAUGUGGAAGGACCGGGUGUUGAGUCU [XTryp B #26]	12.3
UGUGACAUGAGGAUCACCCAUGUAAGGGAAGGAGCGCCGAAUAAGGCAGGUAGGUCGCCCAAGAUAGAAGAAUAAUAAGAUUGUG [Arginine A Same State; Euphoria Solution]	20.8
AAGACAUGAGGAUCACCCAUGUCGACAAAACGAGGACCGGUACGGCCGCCACUCGAAAGCAAAUGAGCGCAUGCGGCCUGGGUAU [Exclusion Tryp A GF2]	10.1
UAACAUGAGGAUCACCCAUGUAUAGUCGAUACCAGCUCUGUCUAGAGCCCUUGGCAGCGACACUGGUAUCCAUGGGUGUGGAUAC [(Ms2)-(Theo)-(T)'-(M)'-(M)'']	20.1
CAAUAUAUAUGAAGGAGCGUCGAAAAUGGGUAAACAUGAGGAUCACCCAUGUAAAGGGAACGACAGGUAGGUCGCAUAUAUAUUG [AstromonsSSArgB#8]	117
AUGCAUAGCGGAAGGAGCGCAAUAGAAUGACAUGAGGAUCACCCAUGUGUGUGAUGUGGAUUGCAGGUAGGUCGCCGAGUGGUAU [Exclusion - Arginine B (Freestyle 3)]	35.9
GAGCUGAUGUAGAAAUUUUAUUUCUGAGAUACCAGUACAGAAAUGUACCCUUGGCAGCUCAGUUUUACAUGAGGAUCACCCAUGU [Ex Theophylline A 15]	14.8
AACAUGAGGAUCACCCAUGUCGGGCCGGUGCGAGGACCGGUACGGCCGCCACUCGAGACAUGAGGAUCACCCAUGUAGGGCGAGA [Exclusion Tryptophan A GF22]	44
AACAGGGUCUGAAGGAGCGCGAUCACAUGAGGAUCACCCAUGUGAAAUGGUAGAUGAUACUCGCAGGUAGGUCGCAGUACUUGAC [Same State Arginine B GF 15]	54.2
UUGUUGUUUGGAAGGAGCGUGUAAGAUUAAGAACAUGAGGAUCACCCAUGUUUUAAGGGAGCACAGGUAGGUCGCCGGGUGGUGG [11.S]	14.4
GAAGAGAGGAUACCGUUUGUAUACAACGAUACCAGUGGUAUGUAUCACCCUUGGCAGCGUGAGACAUGAGGAUCACCCAUGUGGC [theeternabot_exclusion_MS2_Theo_A_46]	14.3
GUCCUCGUGUCCGGUUUAGCGCAAAGCGCACGAGGACCGGUACGGCCGCCACUCGAAACAUGAGGAUCACCCAUGUGAAGAAUAA [Design 1]	14.4
